Where a chain is given by its changes, count along the chain named.
B1: H0610-G1dh/none-Hi-Kn010G3/L0186-k0 (antibody, V domains shown)
VH: QVQLVQSGAEVKKPGASVKVSCKASGYTFTDYEMHWIRQPPGQGLEWIGAIDGKTPDTAYSQKFKGRVTLTADKSTSTAYMELSSLTSEDTAVYYCTRFYSYTYWGQGTLVTVSS
VL: DIVMTQSPLSLPVTPGEPASISCRSSQSLVHSNRNTYLHWYQQKPGQAPRLLIYKVSNRFSGVPDRFSGSGSGTDFTLKISRVEAEDVGVYYCGQGTQWPYTFGQGTKLEIK
notes: one-arm
B2: H0610-G1dh/none-Hi-Kn010G3/L0232-k0 (antibody, V domains shown)
VH: B1 VH
VL: B1 VL with Q27E, W99V
notes: one-arm
B3: H0610-G1dh/none-Hi-Kn010G3/L0261-k0 (antibody, V domains shown)
VH: B1 VH
VL: B1 VL with L29P, L38I, H39Q, G94T, W99V
notes: one-arm
B4: H0610-G1dh/none-Hi-Kn010G3/L0215-k0 (antibody, V domains shown)
VH: B1 VH
VL: B1 VL with S28P, L29P, L38I, W99V
notes: one-arm
B5: H0610-G1dh/none-Hi-Kn010G3/L0238-k0 (antibody, V domains shown)
VH: B1 VH
VL: B1 VL with Q27E, S28P, L29P, G94Y, W99V
notes: one-arm
B6: H0610-G1dh/none-Hi-Kn010G3/L0226-k0 (antibody, V domains shown)
VH: B1 VH
VL: B1 VL with L29P, L38I, G94I, W99V
notes: one-arm
B7: H0610-G1dh/none-Hi-Kn010G3/L0213-k0 (antibody, V domains shown)
VH: B1 VH
VL: B1 VL with L29P, L38I, S61R, W99V
notes: one-arm
B8: H0610-G1dh/none-Hi-Kn010G3/L0267-k0 (antibody, V domains shown)
VH: B1 VH
VL: B1 VL with S25P, L29P, G94V, W99V
notes: one-arm
B9: H0610-G1dh/none-Hi-Kn010G3/L0214-k0 (antibody, V domains shown)
VH: B1 VH
VL: B1 VL with S28P, L29P, S61R, W99V
notes: one-arm
B10: H0610-G1dh/none-Hi-Kn010G3/L0265-k0 (antibody, V domains shown)
VH: B1 VH
VL: B1 VL with L29P, L38I, H39Q, G94A, W99V
notes: one-arm
B11: H0610-G1dh/none-Hi-Kn010G3/L0246-k0 (antibody, V domains shown)
VH: B1 VH
VL: B1 VL with L29P, L38I, H39Q, G94S, W99V
notes: one-arm
B12: H0610-G1dh/none-Hi-Kn010G3/L0239-k0 (antibody, V domains shown)
VH: B1 VH
VL: B1 VL with Q27E, L29P, S61R, W99V
notes: one-arm
B13: H0610-G1dh/none-Hi-Kn010G3/L0269-k0 (antibody, V domains shown)
VH: B1 VH
VL: B1 VL with L29P, L38I, H39Q, W99V
notes: one-arm
B14: H0610-G1dh/none-Hi-Kn010G3/L0243-k0 (antibody, V domains shown)
VH: B1 VH
VL: B1 VL with Q27E, S28P, L29P, S61R, W99V
notes: one-arm
B15: H0610-G1dh/none-Hi-Kn010G3/L0216-k0 (antibody, V domains shown)
VH: B1 VH
VL: B1 VL with S28P, S61R, W99V
notes: one-arm
B16: H0610-G1dh/none-Hi-Kn010G3/L0223-k0 (antibody, V domains shown)
VH: B1 VH
VL: B1 VL with L29P, L38I, F60L, G94Y, W99V
notes: one-arm
B17: H0610-G1dh/none-Hi-Kn010G3/L0229-k0 (antibody, V domains shown)
VH: B1 VH
VL: B1 VL with L29P, L38I, G94Y, G96S, W99V
notes: one-arm
B18: H0610-G1dh/none-Hi-Kn010G3/L0240-k0 (antibody, V domains shown)
VH: B1 VH
VL: B1 VL with Q27E, L29P, G94Y, W99V
notes: one-arm
B19: H0610-G1dh/none-Hi-Kn010G3/L0263-k0 (antibody, V domains shown)
VH: B1 VH
VL: B1 VL with L29P, L38I, G94A, W99V
notes: one-arm
B20: H0610-G1dh/none-Hi-Kn010G3/L0233-k0 (antibody, V domains shown)
VH: B1 VH
VL: B1 VL with S28E, W99V
notes: one-arm
B21: H0610-G1dh/none-Hi-Kn010G3/L0262-k0 (antibody, V domains shown)
VH: B1 VH
VL: B1 VL with S28P, L29P, G94A, W99V
notes: one-arm
B22: H0610-G1dh/none-Hi-Kn010G3/L0258-k0 (antibody, V domains shown)
VH: B1 VH
VL: B1 VL with S28P, L29P, G94T, W99V
notes: one-arm
B23: H0610-G1dh/none-Hi-Kn010G3/L0228-k0 (antibody, V domains shown)
VH: B1 VH
VL: B1 VL with L29P, L38I, G94V, W99V
notes: one-arm
B24: H0610-G1dh/none-Hi-Kn010G3/L0230-k0 (antibody, V domains shown)
VH: B1 VH
VL: B1 VL with L29P, L38I, G94Y, G96T, W99V
notes: one-arm
B25: H0610-G1dh/none-Hi-Kn010G3/TR01L010-k0 (antibody, V domains shown)
VH: B1 VH
VL: B1 VL with S61R, W99V, L109V, K112E
notes: one-arm
B26: H0610-G1dh/none-Hi-Kn010G3/L0202-k0 (antibody, V domains shown)
VH: B1 VH
VL: B1 VL with L29P, N35W, W99V
notes: one-arm
B27: H0610-G1dh/none-Hi-Kn010G3/TR01L008-k0 (antibody, V domains shown)
VH: B1 VH
VL: B1 VL with R24Q, S25A, Q27E, S61R, W99V
notes: one-arm
B28: H0610-G1dh/none-Hi-Kn010G3/L0264-k0 (antibody, V domains shown)
VH: B1 VH
VL: B1 VL with S25P, L29P, G94A, W99V
notes: one-arm
B29: H0610-G1dh/none-Hi-Kn010G3/L0231-k0 (antibody, V domains shown)
VH: B1 VH
VL: B1 VL with L29P, L38I, G94Y
notes: one-arm
B30: H0610-G1dh/none-Hi-Kn010G3/L0219-k0 (antibody, V domains shown)
VH: B1 VH
VL: B1 VL with L38I, S61R, W99V
notes: one-arm
B31: H0610-G1dh/none-Hi-Kn010G3/L0242-k0 (antibody, V domains shown)
VH: B1 VH
VL: B1 VL with Q27E, L29P, L38I, G94Y, W99V
notes: one-arm
B32: H0610-G1dh/none-Hi-Kn010G3/L0220-k0 (antibody, V domains shown)
VH: B1 VH
VL: B1 VL with S28P, S61R, G94Y, W99V
notes: one-arm
B33: H0610-G1dh/none-Hi-Kn010G3/L0237-k0 (antibody, V domains shown)
VH: B1 VH
VL: B1 VL with S28E, L29P, L38I, G94Y, W99V
notes: one-arm
B34: H0610-G1dh/none-Hi-Kn010G3/L0224-k0 (antibody, V domains shown)
VH: B1 VH
VL: B1 VL with L29P, L38I, S61P, G94Y, W99V
notes: one-arm
B35: H0610-G1dh/none-Hi-Kn010G3/L0234-k0 (antibody, V domains shown)
VH: B1 VH
VL: B1 VL with S28E, L29P, S61R, W99V
notes: one-arm
B36: H0610-G1dh/none-Hi-Kn010G3/TR01L003-k0 (antibody, V domains shown)
VH: B1 VH
VL: B1 VL with W99V, L109V, K112E
notes: one-arm
B37: H0610-G1dh/none-Hi-Kn010G3/L0218-k0 (antibody, V domains shown)
VH: B1 VH
VL: B1 VL with S61R, G94Y, W99V
notes: one-arm
B38: H0610-G1dh/none-Hi-Kn010G3/L0248-k0 (antibody, V domains shown)
VH: B1 VH
VL: B1 VL with S25P, L29P, L38I, H39Q, G94Y, W99V
notes: one-arm
B39: H0610-G1dh/none-Hi-Kn010G3/L0266-k0 (antibody, V domains shown)
VH: B1 VH
VL: B1 VL with S28P, L29P, G94V, W99V
notes: one-arm
B40: H0610-G1dh/none-Hi-Kn010G3/TR01L009-k0 (antibody, V domains shown)
VH: B1 VH
VL: B1 VL with Q42L, A48S, R50Q, S61R, W99V
notes: one-arm
B41: H0610-G1dh/none-Hi-Kn010G3/L0200-k0 (antibody, V domains shown)
VH: B1 VH
VL: B1 VL with S25P, L29P, W99V
notes: one-arm
B42: H0610-G1dh/none-Hi-Kn010G3/L0217-k0 (antibody, V domains shown)
VH: B1 VH
VL: B1 VL with S25P, S61R, W99V
notes: one-arm
B43: H0610-G1dh/none-Hi-Kn010G3/TR01L005-k0 (antibody, V domains shown)
VH: B1 VH
VL: B1 VL with Q42L, A48S, R50Q, W99V, L109V, K112E
notes: one-arm
B44: H0610-G1dh/none-Hi-Kn010G3/L0249-k0 (antibody, V domains shown)
VH: B1 VH
VL: B1 VL with S25P, L29P, L38I, H39Q, G94S, W99V
notes: one-arm
B45: H0610-G1dh/none-Hi-Kn010G3/L0227-k0 (antibody, V domains shown)
VH: B1 VH
VL: B1 VL with L29P, L38I, G94L, W99V
notes: one-arm
B46: H0610-G1dh/none-Hi-Kn010G3/L0187-k0 (antibody, V domains shown)
VH: B1 VH
VL: B1 VL with W99Y
notes: one-arm
B47: H0610-G1dh/none-Hi-Kn010G3/L0268-k0 (antibody, V domains shown)
VH: B1 VH
VL: B1 VL with L29P, L38I, H39Q, G94V, W99V
notes: one-arm
B48: H0610-G1dh/none-Hi-Kn010G3/L0205-k0 (antibody, V domains shown)
VH: B1 VH
VL: B1 VL with L29P, S61W, W99V
notes: one-arm
B49: H0610-G1dh/none-Hi-Kn010G3/L0259-k0 (antibody, V domains shown)
VH: B1 VH
VL: B1 VL with L29P, L38I, G94T, W99V
notes: one-arm

Target: T1, human GPC3 (human, UniProt P51654 25-563)
T1 construct: range 25-563; soluble analyte; also called soluble human GPC3; glypican 3
T1 sequence (P51654 25-563 limits assumed): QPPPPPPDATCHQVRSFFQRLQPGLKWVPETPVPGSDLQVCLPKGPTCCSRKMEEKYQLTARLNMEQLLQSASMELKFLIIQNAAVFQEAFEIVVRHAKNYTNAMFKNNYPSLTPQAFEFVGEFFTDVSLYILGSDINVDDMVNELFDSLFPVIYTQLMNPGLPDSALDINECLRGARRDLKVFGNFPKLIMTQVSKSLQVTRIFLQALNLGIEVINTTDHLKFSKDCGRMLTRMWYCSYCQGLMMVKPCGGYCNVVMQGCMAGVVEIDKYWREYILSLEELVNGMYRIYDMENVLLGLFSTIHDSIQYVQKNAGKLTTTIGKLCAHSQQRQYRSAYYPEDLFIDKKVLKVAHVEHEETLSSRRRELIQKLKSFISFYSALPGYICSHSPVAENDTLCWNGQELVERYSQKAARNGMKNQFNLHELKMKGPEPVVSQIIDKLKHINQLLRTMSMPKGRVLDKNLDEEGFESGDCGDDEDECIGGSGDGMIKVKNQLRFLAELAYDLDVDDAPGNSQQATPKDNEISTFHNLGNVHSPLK
Assay: SPR

Row | Kd | Binder
1 | 1.08 nM | B1
2 | 5.38 nM | B2
3 | 0.0107 nM | B3
4 | 1.64 nM | B4
5 | 0.637 nM | B5
6 | 0.093 nM | B6
7 | 1.25 nM | B7
8 | 0.179 nM | B8
9 | 0.657 nM | B9
10 | 0.0087 nM | B10
11 | 0.00121 nM | B11
12 | 0.874 nM | B12
13 | 0.459 nM | B13
14 | 0.649 nM | B14
15 | 1.86 nM | B15
16 | 0.475 nM | B16
17 | 1.2 nM | B17
18 | 0.848 nM | B18
19 | 0.564 nM | B19
20 | 3.55 nM | B20
21 | 0.211 nM | B21
22 | 0.000352 nM | B22
23 | 0.202 nM | B23
24 | 4 nM | B24
25 | 2.92 nM | B25

Row | Kd | Binder
26 | 1.22 nM | B26
27 | 3.48 nM | B27
28 | 0.219 nM | B28
29 | 0.589 nM | B29
30 | 2.28 nM | B30
31 | 1.19 nM | B31
32 | 1.36 nM | B32
33 | 1.31 nM | B33
34 | 0.243 nM | B34
35 | 0.778 nM | B35
36 | 5.08 nM | B36
37 | 1.99 nM | B37
38 | 0.0555 nM | B38
39 | 0.213 nM | B39
40 | 3.81 nM | B40
41 | 1.04 nM | B41
42 | 1.79 nM | B42
43 | 5.37 nM | B43
44 | 0.00686 nM | B44
45 | 0.408 nM | B45
46 | 4.92 nM | B46
47 | 0.0169 nM | B47
48 | 1.01 nM | B48
49 | 0.334 nM | B49

— patent US20250066503A1, “CELL INJURY INDUCING THERAPEUTIC DRUG FOR USE IN CANCER THERAPY” (CHUGAI SEIYAKU KABUSHIKI KAISHA, priority 2016, published 2025)
